Assay results from the RNAGym collection of RNA variant scans (doi:10.1073/pnas.2313332121).

B1: TPR t1 (parent)
chain: GACCAAUCUGCCCUCAGAGCUCGAGAACAUCUUCGGAUGCAGAGGAGGCAGGCUUCGGUGGCGCGAUAGCGCCAACGUCCUCAACCUCCAAUGCAUCCCACCACAUGAUGAUGCCUGAAGAGCCUUGGUUUUUUG

Variants of: B1
Experiment: polymerase ribozyme fitness, log enrichment relative to wild type (log ratio); higher = more active; in vitro selection for triplet polymerase activity
Method in brief: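 In triplicate, a single round of in vitro selection was run on each mutant library, PCR-built and transcribed, covering one subunit of a heterodimeric triplet polymerase ribozyme. Frozen incubation at −7 °C followed annealing with a biotinylated primer, partner subunit and triplets, and extended constructs were then gel-excised, streptavidin-captured and taken through RT-PCR. Fitness is the logarithm of genotype enrichment over wild-type enrichment, from inverse-variance-weighted replicate averages of Illumina-sequenced inputs and outputs. […] only genotypes with ≥10 input reads and ≥1 read per output were kept.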

Going from G39U G45A to C40G U55G G71A C85A, the “polymerase ribozyme fitness (log ratio)” value falls from -2.22 to -3.12.

Going from A41C G42C U106A to A41C C70G U78C, the “polymerase ribozyme fitness (log ratio)” value falls from -2.3 to -5.64.

Compared with G39U G77U C89U, C40G C56G C70A is lower in “polymerase ribozyme fitness (log ratio)” value: -1.38 for the first, -4.24 for the second.

Compared with G39A C49G C62G A90C G113A, U38C C56U A84G is higher in “polymerase ribozyme fitness (log ratio)” value: -6.39 for the first, -1.53 for the second.

Going from U38G A43U U87C to G39A A111C, the “polymerase ribozyme fitness (log ratio)” value rises from -2.42 to -0.291.

Going from C40U U78G C85G to G39A C62G, the “polymerase ribozyme fitness (log ratio)” value falls from -2.08 to -2.59.

Going from G39A C62U to C40G C72U C102U U116G C124U, the “polymerase ribozyme fitness (log ratio)” value falls from -0.84 to -4.29.

Compared with C40A G60A G110C, C40G C101U is higher in “polymerase ribozyme fitness (log ratio)” value: -6.85 for the first, -1.22 for the second.

First: C40A A43U C70U C86U G93U C97G G135C
Second: C40G C49U A74U U78A
The “polymerase ribozyme fitness (log ratio)” value of the first is lower: -6.34 for the first, -3.07 for the second.

First: C40A G47A
Second: C40U G113A C114G
The “polymerase ribozyme fitness (log ratio)” value of the first is lower: -3.03 for the first, -2.13 for the second.

First: A41C C114G
Second: C40G U116C
The “polymerase ribozyme fitness (log ratio)” value of the first is higher: -1.19 for the first, -2.34 for the second.

Compared with U38A G48U G110A, C40G C94G A121U is higher in “polymerase ribozyme fitness (log ratio)” value: -3.21 for the first, -0.125 for the second.

Compared with G39A A46U U78A U126C, A41C C76U C89U A111C is higher in “polymerase ribozyme fitness (log ratio)” value: -3.53 for the first, -1.22 for the second.

First: G39C G71U
Second: C40U G52U U96G A105U G120A G128C U131G
The “polymerase ribozyme fitness (log ratio)” value of the first is higher: -0.983 for the first, -6.51 for the second.

First: G39U G128C
Second: C40U C53A G113C
The “polymerase ribozyme fitness (log ratio)” value of the first is lower: -3.25 for the first, -2.73 for the second.

Going from C40G C53U A121C to C40G G127C, the “polymerase ribozyme fitness (log ratio)” value falls from 1.26 to -1.55.

Compared with G39A C56U, C40U C49G U59A is lower in “polymerase ribozyme fitness (log ratio)” value: -0.755 for the first, -1.73 for the second.

Compared with C40A G77A A84U C94U U106A, C40A C56U C72G is lower in “polymerase ribozyme fitness (log ratio)” value: -2.81 for the first, -3.26 for the second.

Compared with C40G C80U G122U, C40A A41C C49A C70U U92A C102G U109A is lower in “polymerase ribozyme fitness (log ratio)” value: -3.37 for the first, -6.25 for the second.

Going from U38A G58C C115A to C40A C114G, the “polymerase ribozyme fitness (log ratio)” value falls from -1.1 to -3.8.

Going from G39A C49A to C40G G61U C72G G117C, the “polymerase ribozyme fitness (log ratio)” value falls from -0.508 to -4.91.

Compared with A41C A46G, A41C C62U is lower in “polymerase ribozyme fitness (log ratio)” value: -1.13 for the first, -2.99 for the second.

Going from U38G C64U C80G U131C to C40G C124U, the “polymerase ribozyme fitness (log ratio)” value rises from -6.8 to 0.744.

Compared with G39U C94U G113C A118C, G39A A66C C86G is higher in “polymerase ribozyme fitness (log ratio)” value: -3.27 for the first, -2.29 for the second.

Compared with C40G G57U A91C, U38G G128C is higher in “polymerase ribozyme fitness (log ratio)” value: -3.44 for the first, -2.66 for the second.

Going from U38G G69U to C40G C56U, the “polymerase ribozyme fitness (log ratio)” value falls from -0.236 to -1.79.

Going from G39U C124A to G39U G110C A121C, the “polymerase ribozyme fitness (log ratio)” value falls from 0.161 to -4.8.

C40U G44U C49U C53A A84C C86G G113C U125C and C40G G45U C88G U92A are within 0.2 log units of each other in “polymerase ribozyme fitness (log ratio)” value: -3.99 for the first, -4.08 for the second.

Going from G39U C53G C123U to C40G G51A A68G, the “polymerase ribozyme fitness (log ratio)” value falls from 1.06 to -6.59.

First: G39U U78C G120A
Second: C40A C85A
The “polymerase ribozyme fitness (log ratio)” value of the first is higher: 0.169 for the first, -1.95 for the second.

Going from U38C G42A A118U G122A to G39U G61A C101U G117A A118G U125A, the “polymerase ribozyme fitness (log ratio)” value rises from -3.31 to -0.872.

Compared with U38G C64U A66C A90U A91C, G39U C53A C82A C124G is higher in “polymerase ribozyme fitness (log ratio)” value: -5.32 for the first, 1.35 for the second.

First: G39A G135C
Second: A41C C70A
The “polymerase ribozyme fitness (log ratio)” value of the first is higher: -0.0346 for the first, -3 for the second.

First: U38G C89A U96A C114G
Second: C40U G52U C88A
The “polymerase ribozyme fitness (log ratio)” value of the first is lower: -5.44 for the first, -1.07 for the second.

Going from G39U A50U to C40U C53U A75G C82U, the “polymerase ribozyme fitness (log ratio)” value rises from -1.79 to -0.592.

First: G39U G45C U87A C114U
Second: C40G C64G C85A U112C
The “polymerase ribozyme fitness (log ratio)” value of the first is lower: -6.43 for the first, -6.02 for the second.

First: C40U C56G C72A C76A
Second: C40U G45U G127C
The “polymerase ribozyme fitness (log ratio)” value of the first is higher: -2.93 for the first, -3.96 for the second.

Going from U38A G69A to C40G A43C G69U G120C, the “polymerase ribozyme fitness (log ratio)” value rises from -4.51 to -0.592.

Compared with G39A A83U U106A C114U, C40U C97U U106A C115A is higher in “polymerase ribozyme fitness (log ratio)” value: -4.87 for the first, -1.86 for the second.

Compared with G39A U54A, C40U A41C C76U U112A G122A is lower in “polymerase ribozyme fitness (log ratio)” value: -0.685 for the first, -3.19 for the second.

First: U38A U133A
Second: C40G A111C
The “polymerase ribozyme fitness (log ratio)” value of the first is lower: -0.815 for the first, -0.485 for the second.

In the case of C40G A111G, the “polymerase ribozyme fitness (log ratio)” value is reported as -0.323.
